Reference: the DeepSol protein solubility set

Assay: soluble on expression in E. coli; label from the status in PepcDB or PDB records

With “MGSDKIHHHHHHMRYAFWNNKGGTGKTSLAFQSICRFAELNPHARILAIDVCPQANLSELMLGGLTNQGSARLMQRQGQVPRCSIGGYFQLRLPAPYTRPAFTASDFITTPNQYNPLIPGNIDLVCGDPLLELQANAVNTLANAQIPGTNTWIAVIDWISDFLESAEGYDYVFFDANPSFSIYTQIALSATNRVILPVMADDSSRRAIQNAFSLIYGLRLPSPIYATYNFATKLREAERPLPQVHLIPKNRLTQYMGPASAFYAVLAAIDQDVAGLLVQRPDLFTFADVADGVVDVRDFQTTGVVSYAKGAPFSQLRTGRLDIGGHRVRVDADMRQNCIDAIDGLVDRIE” as the sequence, how does the “soluble on expression in E. coli” value read?
The value was “not soluble”.

For “GGSCFKCGKKGHFAKNCHEHAHNNAEPKVPGLCPRCKRGKHWANECKSKTDNQGNPIPPH”, which “soluble on expression in E. coli” value is on record?
Its value is “soluble”.

Which “soluble on expression in E. coli” value does the source give for “MSLPHALIVEDDPNSLSGLSAILAADGFSVDTATTIAEARAALTRFIPDVVLVDLNLPDGSGLDLLQHLPAHPPGGALPVIVMTGNATVESAIEGLRHGIWDYLLKPVNIPRLRSLLARIPRPYELTEEVQTLRASLRQLGRFGSMLGRSGAIQHVYDTIEHIAPTEAAVLISGETGTGKQIAARTMHDMSRRRKGPFITFDCRSANSAGVQRSLDSLLFGHERGAFNGAEQREPGLFEQASGGTLFIEEIAELPRAQQEALLRALDSQTFMRVGGTNQVVTDFRLIASTRKAPRAAVADGSLHEDLALRLEAAAVTLPPLRERGEDPALIAQAVVDELNHEGLTRGSAESAKQVAPNFLRECLAYEWPGNVRELQDRVRRAYHASGDVLESLRADEAGSEGHHHHHH” here?
Its value is “soluble”.

With “MRVDELRVDERIKSTLKERGIESFYPPQAEALKSGILEGKNALISIPTASGKTLIAEIAMVHRILTQGGKAVYIVPLKALAEEKFQEFQDWEKIGLRVAMATGDYDSKDEWLGKYDIIIATAEKFDSLLRHGSSWIKDVKILVADEIHLIGSRDRGATLEVILAHMLGKAQIIGLSATIGNPEELAEWLNAELIVSDWRPVKLRRGVFYQGFVTWEDGSIDRFSSWEELVYDAIRKKKGALIFVNMRRKAERVALELSKKVKSLLTKPEIRALNELADSLEENPTNEKLAKAIRGGVAFHHAGLGRDERVLVEENFRKGIIKAVVATPTLSAGINTPAFRVIIRDIWRYSDFGMERIPIIEVHQMLGRAGRPKYDEVGEGIIVSTSDDPREVMNHYIFGKPEKLFSQLSNESNLRSQVLALIATFGYSTVEEILKFISNTFYAYQRKDTYSLEEKIRNILYFLLENEFIEISLEDKIRPLSLGIRTAKLYIDPYTAKMFKDKMEEVVKDPNPIGIFHLISLTPDITPFNYSKREFERLEEEYYEFKDRLYFDDPYISGYDPYLERKFFRAFKTALVLLAWINEVPEGEIVEKYSVEPGDIYRIVETAEWLVYSLKEIAKVLGAYEIVDYLETLRVRVKYGIREELIPLMQLPLVGRRRARALYNSGFRSIEDISQARPEELLKIEGIGVKTVEAIFKFLGKNVKISEKPRKSTLDYFLKS” as the sequence, how does the “soluble on expression in E. coli” value read?
Its value is “soluble”.

Which “soluble on expression in E. coli” value does the source give for “MLELYHRKKLFNLLKAPLKKKPFFFIYNTKQTYRDKTPMRNIDFSKLHLSEDVRANEKVHNKRNLFMSNKIIHYLPPKRHD” here?
Its value is “not soluble”.

Which “soluble on expression in E. coli” value does the source give for “IVHREHHESREEVSVSSGKNNPFYFNSDRWFRTLYRNEWGHIRVLQRFDQRSKQMQNLENYRVVEFKSKPNTLLLPHHADADFLLVVLNGTAVLTLVNPDSRDSYILEQGHAQKIPAGTTFFLVNPDDNENLRIIKLAIPVNNPHRFQDFFLSSTEAQQSYLRGFSKNILEASFDSDFKEINRVLFGEERQQQQGEESREEGVIVELKREQIQELMKHAKSSSRKELSSQDEPFNLRNSKPIYSNKFGRWYEMTPEKNPQLKDLDVFISSVDMKEGALLLPHYSSKAIVIMVINEGEAKIELVGLSDQQQQKQQEESLEVQRYRAELSEDDVFVIPAAYPVAINATSNLNFFAFGINAENNRRNFLAGGKDNVMSEIPTEVLEVSFPASGKKVEKLIKKQSESHFVDAQPEQQQREEGHKGRKGSLSSILGSLY” here?
Its value is “soluble”.

For “MKAITLLSSGLDSVAALAIAAESLEIEMAITFDYGQRAGQREMEYSEKVCEHFGIEQRIIKLDWLGEITHTSLVNRDEEVPSLSFEDIDENSPSMITEYSAKAVWVPNRNGVMLNIAGSFAESRGCDYIVVGFNGEEAGTFPDNSRDYIQAVDNAFSYSTQNGVKVLAPLAEMGKTEIVKKALEAEAPLEYSWSCYHGGEIPCGKCESCVRRARAFKNIGIKDPLLERLGI”, which “soluble on expression in E. coli” value is on record?
Its value is “not soluble”.

For “MMGLLSTIRGKKEPVVGNGIGSAQVGPLNAKTKKLVIQEWPRVLAQCPELFTEIWHKSATRSTSIKLAFGIAENESPMQNAAFLGLSSTIQAFFYKLIITYELNDDQVREACEQLGARHVDFISRGFNSHFWDIFLVCMAEKIDETLSAYIPDEDKRNEMILAWQRVINSIVHQMRNGYSDRRKQQLGGTKGGSNNGF”, which “soluble on expression in E. coli” value is on record?
The value was “not soluble”.

For “MSAFSAINEEREIERDEFTPGIEPQATWCPGCGDFGVLKALKQAMPEVGKNPDEVALFTGIGCSGKLNSYFNSYGFHTIHGRSLPVARAAKLANPNLEVIAAGGDGDGYGIGGNHTIHTARENHDMTYIVFNNEIFGLTKGQTSPTSPKGHKSKTQPHGSAKSPIRPLSQQLNAGATYIARTAAVNPNQAKEIIAEAIEHDGFAHIDFLTQCPTWNKDAKHYVPYTDVQQSDEFDFDVSDRAEAAEMMRKTEERLYEGEVLTGRMYIEDERPSYGEEKRQIGEMPEEPLAERYFDEDAEWERTYDNLLEHHK”, which “soluble on expression in E. coli” value is on record?
Its value is “not soluble”.

For “MADHAHNLRATFGHGRPIGVITRGTTGFNRLRRCDRWMAHHPLIQQALRRTSDPIALDVGYGASFTTTVEWARWLRTMRDDVRVTGLEIDPERVLPPRDGVTFELGGFELAGYQPTLVRAFNVLRQYDVDQVMDAWEMVTSRLQPGGFFVEGTCDELGRRSTWVLLNHAGPQSLTLCWDPFDVERPSDIAERLPKILIHRNVAGEKIHDVLLRTDEAWDRCAPWASYGPRVRWRAARAMLMDMGIPMSIIRRPVRDNQLTVPWSIVDPTT”, which “soluble on expression in E. coli” value is on record?
The value was “not soluble”.

With “MAHHHHHHMVQRTLLDFVRKKDPSPNVINVDAESDEQDEAASRKRRMQGVREPALAFTKPRTENKDDICCSNNFSALITDSGWRAFLQPLTSTTNFRNIEQFIEGEKTKGKVILPPSDLIFSAFNSTPLDRLKVVLLGQDPYHNIGQAHGLCFSVLPGVRPPPSLLNMYKELTTDISGFKSPPHGYLQCWAEQGVLMLNATLTVEAHQANSHAKCGWQAFTDGVIRLLSEKHQRPIVFLLWGGFARKKITLIDQKRHLVIENAHPSPLSAAKWWGSRPFSKCNAALTQLGHSPIDWSIPMSVERRH” as the sequence, how does the “soluble on expression in E. coli” value read?
The value was “not soluble”.

For “MGSDKIHHHHHHMAFNQRTVVMIGPGEHYVTAKNEVIKTLLGSCVAVCLYDPKAQVIGMNHFLLAADRRKFTHFLDSRAGYYGVHAMEILINAMLKRGAQRKYLQSKIFGGANVLSLCADNILNHYDIGGMNIDFVRHFLQRERIPIISEDIGGHCGRVIYFDPTDYSVYRSLIEHKYEEIASLQDEEYRYFNQASEDIHSSGVPVVIWSD”, which “soluble on expression in E. coli” value is on record?
Its value is “not soluble”.

Which “soluble on expression in E. coli” value does the source give for “MRVVVLMGGRSSEREISLKTGKAVAKALRELGHEVYELDLDKELPCKLLEIKPDKVFIALHGRYGEDGTVQGLLEILDIPYTGSDTIASAVSIDKDFTKRIVKSLGINTPDWETFISEGDVLNTEWNKFPAVVKPVREGSSVGLKIVESLEELKEYALDLLKKTERVMVEEFVEGRDMTVGILKGEALPVVEIIPKKGVYDYECKYTKGMSEYRILKDEKLSKKLQEISLKISKFLSLKDFARIDFRVTKEGKIFFLEVNTIPGMTELSLLPMAAKEKGMDFKKLISIIIT” here?
Its value is “soluble”.

With “MRQQTCTTVTLRQRPIRNGRISLYLDYYPAVRNPKTMKLSRREYLGFYIYATPKNAIELDYNNEILAKAELIRCRRQEAVINEEFGFMDRHKMRADFMAYFKEVCRKKDHKWHIVYLHFEKFVNGKCMFGEITVDLCNRFRDYLLHARQLKHTDKMVSRNSAASYFSLFRGVLKLAYRDKYLRENPNDFLEKIESRDIHKEFLTQDELKTLASTPCDIPVLRNASLFSCLTGLRISDILNLKWENLCTAPDLGHCIRLRTQKTQTEALLPISYEAYALCGEPGTGKVFKELRRCMTGYPLKAWIKKAGIQKHITFHCLSHSKLFYLLNISELSILKNVTANDLETSYILFLSQLCNIQRTL” as the sequence, how does the “soluble on expression in E. coli” value read?
The value was “not soluble”.

For “LAEGKEIPCFALTSPEAGSDAGSIPDYGVVTKGMWEGEEVVGMRITWNKRYITLAPVATVLGLAFKLQDPDGLLGDKKDLGITCALIPTDLDGVKIGRRHFPLNVPFQNGPTQGNDLFVPLDYIIGG”, which “soluble on expression in E. coli” value is on record?
Its value is “not soluble”.

For “TILVAIANDSVSPAVIDTAVRLADGLDEELYVVHLVDENTADGTAMQLRDEMRDRFRDATVVATVAIEHVGRSAMRSGTRIGNELLELAADVDVQHIVMGHEPKGLAGRLREGDAAVAVIDAADVPVTIVPEG”, which “soluble on expression in E. coli” value is on record?
Its value is “not soluble”.

With “RGSHMEVRNMVDYELLKKVVEAPGVSGYEFLGIRDVVIEEIKDYVDEVKVDKLGNVIAHKKGEGPKVMIAAHMDQIGLMVTHIEKNGFLRVAPIGGVDPKTLIAQRFKVWIDKGKFIYGVGASVPPHIQKPEDRKKAPDWDQIFIDIGAESKEEAEDMGVKIGTVITWDGRLERLGKHRFVSIAFDDRIAVYTILEVAKQLKDAKADVYFVATVQEEVGLRGARTSAFGIEPDYGFAIDVTIAADIPGTPEHKQVTHLGKGTAIKIMDRSVICHPTIVRWLEELAKKHEIPYQLEILLGGGTDAGAIHLTKAGVPTGALSVPARYIHSNTEVVDERDVDATVELMTKALENIHELKI” as the sequence, how does the “soluble on expression in E. coli” value read?
Its value is “soluble”.

For “MGSDKIHHHHHHMTASLLTFAKGGVHPPESKEITEHLAIEKMPLPAQVEIPLLQHFGAPCQPLVNKKDRVEEGDLIGQVQGLGANVHASITGTVTNVGTSIGPTSLNIPSVTIDRDTEAPDKIYTPSDWRGLSPQELLQKIKDGGIVGIGGAGFPAHVKLSPPPDAKVDTLVLNGAECEPYLTCDHRVMLEKPEEVVEGAKILLHVLGIKDCYIGVESNKNDAIDALRKTIEQQKLDGVKIQVSPLKVKYPQGSEKQLIESTTGRKVPGGGLPFDVGVIVQNVGTAKAVFDAVVLNKPLYEKVITISGRGISRPANLQVRIGTRIRDIVEYLGGTKADLAKIVMGGPMMGFAVSSLDIPVTKTCSGILFLTRDEIDEQPYGPCIRCGWCVEACPMGLSPNEIGLYVEAGRAADTAPFGVFDCFECGSCAFVCPAKRPLVQFIRLAKQKARK”, which “soluble on expression in E. coli” value is on record?
The value was “not soluble”.

For “MGSDKIHHHHHHMKHIHIIGIGGTFMGGIAAIAKEAGFEVSGCDAKMYPPMSTQLEALGIGVYEGFDTAQLDEFKADVYVIGNVAKRGMDVVEAILNRGLPYISGPQWLAENVLHHHWVLGVAGTHGKTTTASMLAWVLEYAGLAPGFLIGGVPENFSVSARLPQTPRQDPNSQSPFFVIEADEYDTAFFDKRSKFVHYRPRTAVLNNLEFDHADIFADLGAIQTQFHHLVRTVPSEGLIVCNGRQQSLQDTLDKGCWTPVEKFGTEHGWQAGEANADGSFDVLLDGKKAGHVAWSLMGGHNRMNALAVIAAARHAGVDIQTACEALSTFKNVKRRMEIKGTANGITVYDDFAHHPTAIETTIQGLRQRVGGARILAVLEPRSNTMKLGTMKAALPASLKEADQVFCYAGGADWDVAEALAPLGGRLHVGKDFDAFVAEIVKNAEAGDHILVMSNGGFGGIHTKLLDALR”, which “soluble on expression in E. coli” value is on record?
The value was “not soluble”.

For “MASGKRKGLSFDDKKTRLLELFNETCDFYTLKELEKIAPKLKGIITQSVKDVLQSLVDDDLVNSDKCGVQTIYWCLPSEAVAKRQRRLDALQQQLAEKRQKLTALQRQLVQVQAGREDSVERTAVLERLAACEAAWRERQRTLESYLECDPDVLAQRETETKTLIEQANRWTDNLYVIRSYVQRNLGVDLDLFDQQFELKPALQYLE”, which “soluble on expression in E. coli” value is on record?
The value was “not soluble”.

With “MAPLLHQVSNYGYGKCVTVRFCDGKTYDAKDGESRAINRDLNVGAVKIYRDSKDEDQAYVLNYFPYNLELNDNRGKNKGLQGYRVLIWKQYGTINLDVFYDEMKIWCKTNDLGIYTSDGELKYYKSVIARHREEGGISVIGFETAEGATTAAAKKEEDENEEASAKVKEANEEESTNA” as the sequence, how does the “soluble on expression in E. coli” value read?
Its value is “soluble”.
